Experimental data published in patent publication US6559282B1, “Artificial T helper cell epitopes as immune stimulators for synthetic peptide immunogens including immunogenic LHRH peptides” (United Biomedical, Inc., priority 1998, dated 2003).
Marks after values point to notes of the source that are not given here.

Assays:
LHRH = target: T1, LHRH (Rattus norvegicus, UniProt P07490); assay: Serum testosterone RIA in rats immunized with LHRH peptide immunogens (immunocastration); assay type: in vivo, Sprague-Dawley rats, male; settings: i.m., serum at weeks 10 or 12
T1 construct: from tissue; host or cells: living male rats (in vivo, endogenous hormone)
Protocol: B. Protocols for immunization. The LHRH peptide immunogens shown in Tables 2a and 2b were evaluated on groups of 5 to 10 rats as specified by the experimental immunization protocol outlined below and by serological assays for determination of immunogenicity on serum samples:
Blood was collected and processed into serum, and stored prior to ELISA and radioimunoassay (RIA) for determination of serum testosterone values.
D. Determination of immunogen efficacy. Immunogens were evaluated for efficacy by RIA for serum testosterone values. Serum testosterone levels were measured using an RIA kit from Diagnostic Products (Los Angeles, Calif.) according to manufacturer's instructions. The lower detection limit for testosterone ranged from 0.01 to 0.03 nmol/L. Each sample was analyzed in duplicate. Serum samples were scored as being at castration level when the testosterone level was below limits of detection and as “near castration” at <0.1 nmol/L. Results were verified by comparison to testosterone levels in serum from mechanically castrated rats.
E. Results. […] The efficacy of the anti-peptide antibody responses, consequential to the cross-reactivity to natural LHRH, was established by determining serum testosterone levels. Those results are summarized in the right columns of Tables 2a and 2b as numbers of animals having castration level serum testosterone per total animals in the group.

[1] = tested on: LHRH peptide (SEQ ID NO:77); assay: ELISA of immune rat sera on LHRH peptide-coated plates (immunogenicity); assay type: in vivo, Sprague-Dawley rats, male; settings: 25 μg doses on Alum at 0 and 3 weeks; ELISA peptide SEQ ID NO: 28
Protocol: C. Method for determination of immunogenicity. Antibody activities were determined by ELISA (enzyme-linked immunosorbent assays) using 96-well flat bottom microtiter plates which were coated with the LHRH peptide (SEQ ID NO:77) as immunosorbent. Aliquots (100 μL) of the peptide immunogen solution at a concentration of 5 μg/mL were incubated for 1 hour at 37° C. The plates were blocked by another incubation at 37° C. for 1 hour with a 3% gelatin/PBS solution. The blocked plates were then dried and used for the assay. Aliquots (100 μL) of the test immune sera, starting with a 1:100 dilution in a sample dilution buffer and ten-fold serial dilutions thereafter, were added to the peptide coated plates. The plates were incubated for 1 hour at 37° C.
The plates were washed six times with 0.05% Tween® in PBS. 100 μL of horseradish peroxidase labeled goat-anti-rat IgG antibody was added at appropriate dilutions in conjugate dilution buffer (Phosphate buffer containing,0.5M NaCl, and normal goat serum). The plates were incubated for 1 hour at 37° C. before being washed as above. Aliquots (100 μL) of o-phenylenediamine substrate solution were then added. […] The A492 nm of the contents of each well was read in a plate reader. ELISA titers were calculated based on linear regression analysis of the absorbances, with cutoff A492 nm set at 0.5. […]

artificial Th epitope = assay: ELISA of immune rat sera on the Th epitope peptide (antibody specificity); assay type: in vivo, rats; settings: 25 μg doses on Alum at 0 and 3 weeks; sera diluted 1:100; ELISA on respective Th peptide

| Substance | no. castrated (animals having castration level serum testosterone per total animals in the group) (LHRH; 25 μg/dose, Alum (0,3 wpi)) | other results |
| --- | --- | --- |
| 41 (ISEIKGVIVHKIEGIGGEHWSYGLRPG) [compound 41] | 6/6 | LHRH Reactivity: number of animals with anti-LHRH titers >1:1000/total animals immunized [1]: 6/6; Th Reactivity: number of animals with anti-Th reactivity >0.100 A490/total animals immunized (artificial Th epitope): 0/6^c |
| 30 (KKKLFLLTKLLTLPFSLD) [compound 30] | – | no. castrated (animals having castration level serum testosterone per total animals in the group) (LHRH; 400 μg/dose, Alum (0,3,6 wpi)): 2/5; no. castrated (animals having castration level serum testosterone per total animals in the group) (LHRH; 400 μg/dose, IFA (0,3,6 wpi)): 9/10 |
| 38 (EISEIRGIIIHRIEGIGGEHWSYGLRPG) [compound 38] | 5/6 | – |
| 33 (KKKMMTMTRMITMITTID) [compound 33] | 5/5 | – |
| 35 (KKKFITMDTKFLLASTHIL) [compound 35] | 2/6 | – |
| 47 (MSEIKGVIVHKLEGMGGEHWSYGLRPG) [compound 47] | 2/6 | – |
| 40 (DFSDFKGFFFHKFDGFGGEHWSYGLRPG) [compound 40] | 4/8 | – |
| 29 (KKKFFFFTKFFTFPVSFD) [compound 29] | – | no. castrated (animals having castration level serum testosterone per total animals in the group) (LHRH; 400 μg/dose, Alum (0,3,6 wpi)): 5/5; no. castrated (animals having castration level serum testosterone per total animals in the group) (LHRH; 400 μg/dose, IFA (0,3,6 wpi)): 8/10 |
| 39 (DVSDVKGVVVHKVDGVGGEHWSYGLRPG) [compound 39] | 3/6 | – |
| 37 (DLSDLKGLLLHKLDGLGGEHWSYGLRPG) [compound 37] | 0/6 | – |
| 43 (LSEIKGVIVHKLEGVGGEHWSYGLRPG) [compound 43] | 14/14 | no. castrated (animals having castration level serum testosterone per total animals in the group) (LHRH; 100 μg/dose, IFA (0,3,6 wpi)): 6/6 |
| 32 (KKKIITITRIITIITTI) [compound 32] | 1/6 | – |
| 34 (FITMDTKFLLASTHIL) [compound 34] | 1/8 | no. castrated (animals having castration level serum testosterone per total animals in the group) (LHRH; 100 μg/dose, IFA (0,3,6 wpi)): 4/6 |
| 54 (ISMTEIRTVIVTRMETMLFGGEHWSYGLRPG) [compound 54] | 0/8 | – |
| 42 (MTEIRTVIVTRMETMGGEHWSYGLRPG) [compound 42] | 6/6 | – |
| 48 (LTEMRTVIVTRMETVGGEHWSYGLRPG) [compound 48] | 1/6 | – |
